{"source": "patent US20220096654A1", "about": "“PYRROLOBENZODIAZEPINE-ANTIBODY CONJUGATES AND USES THEREOF” (ADC THERAPEUTICS SA, priority 2020, published 2022)", "key": {"human CD45 [1]": {"target": "T1, human CD45 (human, UniProt P08575 26-1306)", "T1 sequence": "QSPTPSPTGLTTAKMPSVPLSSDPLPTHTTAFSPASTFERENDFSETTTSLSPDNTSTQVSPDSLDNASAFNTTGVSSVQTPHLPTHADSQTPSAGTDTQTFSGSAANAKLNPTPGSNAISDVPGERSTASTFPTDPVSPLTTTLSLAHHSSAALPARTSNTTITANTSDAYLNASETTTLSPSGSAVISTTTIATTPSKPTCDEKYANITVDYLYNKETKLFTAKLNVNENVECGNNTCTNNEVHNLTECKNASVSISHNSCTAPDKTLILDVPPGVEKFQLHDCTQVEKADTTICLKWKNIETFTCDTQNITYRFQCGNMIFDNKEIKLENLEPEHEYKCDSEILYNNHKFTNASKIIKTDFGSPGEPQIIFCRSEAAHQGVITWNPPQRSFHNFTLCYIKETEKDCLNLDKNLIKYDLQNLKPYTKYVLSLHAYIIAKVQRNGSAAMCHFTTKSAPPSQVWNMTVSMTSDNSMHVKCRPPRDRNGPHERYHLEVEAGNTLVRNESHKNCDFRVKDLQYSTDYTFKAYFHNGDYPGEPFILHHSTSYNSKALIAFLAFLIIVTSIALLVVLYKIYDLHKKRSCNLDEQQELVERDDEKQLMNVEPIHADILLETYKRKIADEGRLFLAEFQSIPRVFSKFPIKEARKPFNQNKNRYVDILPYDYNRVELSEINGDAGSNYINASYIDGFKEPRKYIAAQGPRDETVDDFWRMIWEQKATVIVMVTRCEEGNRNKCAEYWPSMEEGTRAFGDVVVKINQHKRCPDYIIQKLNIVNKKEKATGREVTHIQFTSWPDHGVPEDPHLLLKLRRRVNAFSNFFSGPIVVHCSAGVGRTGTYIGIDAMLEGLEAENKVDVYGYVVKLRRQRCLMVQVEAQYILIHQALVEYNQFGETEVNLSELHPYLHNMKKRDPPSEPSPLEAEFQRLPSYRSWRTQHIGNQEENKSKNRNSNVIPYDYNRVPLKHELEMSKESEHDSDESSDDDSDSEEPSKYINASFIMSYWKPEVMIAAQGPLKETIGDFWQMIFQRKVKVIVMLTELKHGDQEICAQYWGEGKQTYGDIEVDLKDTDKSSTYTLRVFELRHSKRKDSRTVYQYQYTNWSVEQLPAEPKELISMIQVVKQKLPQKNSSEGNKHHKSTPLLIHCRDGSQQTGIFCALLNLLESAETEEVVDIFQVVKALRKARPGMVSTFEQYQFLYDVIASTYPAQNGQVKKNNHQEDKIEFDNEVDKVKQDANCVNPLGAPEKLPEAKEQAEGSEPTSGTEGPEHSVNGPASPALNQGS", "assay": "cell-based or functional assay"}, "human CD45 [2]": {"target": "T1, human CD45", "assay": "cell-based or functional assay", "remark": "listed apart in the source"}, "human CD45 [3]": {"target": "T1, human CD45", "assay": "cell-based or functional assay", "remark": "listed apart in the source"}, "293T (CD45-)": {"tested_on": "293T (CD45-)", "assay": "Cell viability assay 5 days (PrestoBlue), 293T", "assay_type": "cell-based, human", "details": "rat IgG2b ADC, n=3", "method": "(§1) OCIM1, Jurkat and Nalm6 cells were seeded at a final concentration of 1.275×10^4/mL and for 5 days in presence of rat IgG2b Mab or ADC or medium (in triplicate) in wells of flat bottom 96-well plates. 293T cells were seeded at 9.3×10^3 cells per 100 uL per well in flat bottom 96-well plates and allowed to adhere the plate for up to 24 hours. 293T cells were subsequently cultured with rat IgG2b Mabs or ADC or medium (in triplicate wells) as described above. PrestoBlue® Cell viability Reagent (Thermo Fisher Scientific) was added to each and incubated for up to 1.5 hours. Fluorescence intensity from each well was detected using a FLUOstar OPTIMA microplate reader (BMG Labtech). Data was plotted using Prism 8.0 and sigmoid dose-response non-linear regression was used to determine EC50 values. Data points are mean±s.d. for representative experiments."}, "Nalm6 (CD45-)": {"tested_on": "Nalm6 (CD45-)", "assay": "Cell viability assay 5 days (PrestoBlue), Nalm6", "assay_type": "cell-based, human", "details": "rat IgG2b ADC, n=3", "method": "as §1"}}}
{"molecule": "YTH54.12-hIgG1-AAA-PBD (antibody, DAR 2.10, V domains shown) VH: EVQLVESGGGLVQPGGSMKLSCAASGFTFSDYYMAWVRQAPKKGLEWVASMSFAGSSTYYGDSVKGRFTISRDNAKTTLYLQMNSLRSEDTATYYCARMYTTDYYLYWYFDFWGPGTMVTVSS VL: DVQMTQSPSYLAASPGESVSISCKASKSISNYLAWYQQKPGEANKILIYSGSTLQSGTPSRFSGSGSGTDFSLTIRNLEPEDFAVYYCQQYDEKPLTFGSGTKLEIK", "values": [{"measurement": "EC50, clonogenic assay, CD34+ PBSC (CD45+)", "setting": "human CD45 [1]", "result": 6.4, "unit": "pM"}, {"measurement": "EC50, viability assay, Jurkat (CD45+), 72 h", "setting": "human CD45 [1]", "result": 18, "unit": "pM"}, {"measurement": "EC50, viability assay, OCIM1 (CD45+), 72 h", "setting": "human CD45 [1]", "result": 9.7, "unit": "pM"}]}
{"molecule": "YTH54.12-B4 (antibody, V domains shown, PBD drug-linker B4 (non-cleavable) conjugated; sites and DAR not stated) VH: EVQLVESGGGLVQPGGSMKLSCAASGFTFSDYYMAWVRQAPKKGLEWVASMSFAGSSTYYGDSVKGRFTISRDNAKTTLYLQMNSLRSEDTATYYCARMYTTDYYLYWYFDFWGPGTMVTVSS VL: DVQMTQSPSYLAASPGESVSISCKASKSISNYLAWYQQKPGEANKILIYSGSTLQSGTPSRFSGSGSGTDFSLTIRNLEPEDFAVYYCQQYDEKPLTFGSGTKLEIKR", "values": [{"measurement": "Average EC50, viability assay, Jurkat (CD45+), 5 days", "setting": "human CD45 [2]", "result": 0.091, "unit": "pM"}, {"measurement": "Average EC50, viability assay, OCIM1 (CD45+), 5 days", "setting": "human CD45 [2]", "result": 0.22, "unit": "pM"}, {"measurement": "Average EC50, clonogenic assay, primary human CD34+ cells", "setting": "human CD45 [3]", "result": 4.47, "unit": "pM"}]}
{"molecule": "YTH54.12-rat IgG2b-PBD (drug-linker B1) (antibody, V domains shown, PBD dimer drug-linker B1; light chains unconjugated or attached to a single molecule of B1; sites not given; PBD dimer drug-linker B1 conjugated after TCEP reduction; heavy chains attached to up to five molecules of B1; sites not given; DAR 1.90 (preparation) / 2.00) VH: EVQLVESGGGLVQPGGSMKLSCAASGFTFSDYYMAWVRQAPKKGLEWVASMSFAGSSTYYGDSVKGRFTISRDNAKTTLYLQMNSLRSEDTATYYCARMYTTDYYLYWYFDFWGPGTMVTVSS VL: DVQMTQSPSYLAASPGESVSISCKASKSISNYLAWYQQKPGEANKILIYSGSTLQSGTPSRFSGSGSGTDFSLTIRNLEPEDFAVYYCQQYDEKPLTFGSGTKLEIKR", "values": [{"measurement": "Average EC50, viability assay, Jurkat (CD45+), 5 days", "setting": "human CD45 [2]", "result": 0.127, "unit": "pM"}, {"measurement": "Average EC50, viability assay, OCIM1 (CD45+), 5 days", "setting": "human CD45 [2]", "result": 0.039, "unit": "pM"}, {"measurement": "Average EC50, clonogenic assay, primary human CD34+ cells", "setting": "human CD45 [3]", "result": 1.52, "unit": "pM"}, {"measurement": "EC50, clonogenic assay, CD34+ PBSC (CD45+)", "setting": "human CD45 [1]", "result": 23, "unit": "pM"}, {"measurement": "EC50, viability assay, Jurkat (CD45+), 72 h", "setting": "human CD45 [1]", "result": 4.44, "unit": "pM"}, {"measurement": "EC50, viability assay, OCIM1 (CD45+), 72 h", "setting": "human CD45 [1]", "result": 1.89, "unit": "pM"}]}
{"molecule": "YTH54.12-B2 (antibody, V domains shown, PBD drug-linker B2 conjugated; sites and DAR not stated) VH: EVQLVESGGGLVQPGGSMKLSCAASGFTFSDYYMAWVRQAPKKGLEWVASMSFAGSSTYYGDSVKGRFTISRDNAKTTLYLQMNSLRSEDTATYYCARMYTTDYYLYWYFDFWGPGTMVTVSS VL: DVQMTQSPSYLAASPGESVSISCKASKSISNYLAWYQQKPGEANKILIYSGSTLQSGTPSRFSGSGSGTDFSLTIRNLEPEDFAVYYCQQYDEKPLTFGSGTKLEIKR", "values": [{"measurement": "Average EC50, viability assay, Jurkat (CD45+), 5 days", "setting": "human CD45 [2]", "result": 2.43, "unit": "pM"}, {"measurement": "Average EC50, viability assay, OCIM1 (CD45+), 5 days", "setting": "human CD45 [2]", "result": 0.58, "unit": "pM"}, {"measurement": "Average EC50, clonogenic assay, primary human CD34+ cells", "setting": "human CD45 [3]", "result": 23.9, "unit": "pM"}]}
{"molecule": "YTH54.12-B7 (antibody, V domains shown, PBD drug-linker B7 conjugated; sites and DAR not stated) VH: EVQLVESGGGLVQPGGSMKLSCAASGFTFSDYYMAWVRQAPKKGLEWVASMSFAGSSTYYGDSVKGRFTISRDNAKTTLYLQMNSLRSEDTATYYCARMYTTDYYLYWYFDFWGPGTMVTVSS VL: DVQMTQSPSYLAASPGESVSISCKASKSISNYLAWYQQKPGEANKILIYSGSTLQSGTPSRFSGSGSGTDFSLTIRNLEPEDFAVYYCQQYDEKPLTFGSGTKLEIKR", "values": [{"measurement": "Average EC50, viability assay, Jurkat (CD45+), 5 days", "setting": "human CD45 [2]", "result": 4.79, "unit": "pM"}, {"measurement": "Average EC50, viability assay, OCIM1 (CD45+), 5 days", "setting": "human CD45 [2]", "result": 1.07, "unit": "pM"}, {"measurement": "Average EC50, clonogenic assay, primary human CD34+ cells", "setting": "human CD45 [3]", "result": 45.1, "unit": "pM"}]}
{"molecule": "YTH54.12-B2: rat IgG2b anti-CD45 antibody YTH54.12 conjugated to PBD drug-linker B2 (drawing 44) (conjugate) heavy: EVQLVESGGGLVQPGGSMKLSCAASGFTFSDYYMAWVRQAPKKGLEWVASMSFAGSSTYYGDSVKGRFTISRDNAKTTLYLQMNSLRSEDTATYYCARMYTTDYYLYWYFDFWGPGTMVTVSSAQTTAPSVYPLAPGCGDTTSSTVTLGCLVKGYFPEPVTVTWNSGALSSDVHTFPAVLQSGLYTLTSSVTSSTWPSQTVTCNVAHPASSTKVDKKVERRNGGIGHKCPTCPTCHKCPVPELLGGPSVFIFPPKPKDILLISQNAKVTCVVVDVSEEEPDVQFSWFVNNVEVHTAQTQPREEQYNSTFRVVSALPIQHQDWMSGKEFKCKVNNKALPSPIEKTISKPKGLVRKPQVYVMGPPTEQLTEQTVSLTCLTSGFLPNDIGVEWTSNGHIEKNYKNTEPVMDSDGSFFMYSKLNVERSRWDSRAPFVCSVVHEGLHNHHVEKSISRPPGK light: DVQMTQSPSYLAASPGESVSISCKASKSISNYLAWYQQKPGEANKILIYSGSTLQSGTPSRFSGSGSGTDFSLTIRNLEPEDFAVYYCQQYDEKPLTFGSGTKLEIKRADAAPTVSIFPPSMEQLTSGGATVVCFVNNFYPRDISVKWKIDGSEQRDGVLDSVTDQDSKDSTYSMSSTLSLTKVEYERHNLYTCEVVHKTSSSPVVKSFNRNEC", "values": [{"measurement": "EC50", "setting": "293T (CD45-)", "result": "> 6000", "unit": "pM"}, {"measurement": "EC50", "setting": "Nalm6 (CD45-)", "result": 27.9, "unit": "pM"}]}
